{"source": "patent US20130224191A1", "about": "“NOTUM PROTEIN MODULATORS AND METHODS OF USE” (priority 2010, published 2013)", "molecules": {"B1": {"name": "SC2.D2.2 (antibody, V domains shown)", "VH": "DVQLVESGGGLVQPGGSRKISCAASGFTFSSYGMHWVRQAPEKGLEWVAYISSSTVTTYYADTVKGRFTISRDNANNTLFLQMTSLRSEDTAMYYCSRQNWDGGYFDVWGAGTTVTVSS", "VL": "DIVLTQSLASLAVSLGQRATISCRASKSVSSSGYSYMHWYQQKPGQPPKLLIYLASNLESGVPARFSGSGSGTDFTLNIHPVEEEDAATYYCQHSRALPLTFGAGTKLELKR", "notes": "also called murine SC2.D2.2"}}, "key": {"[1]": {"biological_target": "T1, Notum being secreted from the 293-Notum cells (Homo sapiens, UniProt Q6P988)", "T1 construct": "expressed in transfected cells; host or cells: 293T (293.Notum)", "T1 sequence (Q6P988 20-496)": "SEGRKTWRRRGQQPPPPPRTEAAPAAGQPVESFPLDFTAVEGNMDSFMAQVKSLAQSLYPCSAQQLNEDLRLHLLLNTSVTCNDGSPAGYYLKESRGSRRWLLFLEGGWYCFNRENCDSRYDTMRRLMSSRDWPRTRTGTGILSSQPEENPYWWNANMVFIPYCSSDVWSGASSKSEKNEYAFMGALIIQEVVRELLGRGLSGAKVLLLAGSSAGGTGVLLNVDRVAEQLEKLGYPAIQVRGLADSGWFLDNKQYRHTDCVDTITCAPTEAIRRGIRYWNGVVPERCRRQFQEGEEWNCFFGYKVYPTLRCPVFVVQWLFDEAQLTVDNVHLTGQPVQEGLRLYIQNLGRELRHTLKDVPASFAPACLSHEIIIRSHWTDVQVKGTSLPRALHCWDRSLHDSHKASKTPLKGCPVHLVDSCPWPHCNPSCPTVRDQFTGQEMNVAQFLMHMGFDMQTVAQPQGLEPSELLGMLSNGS", "assay": "Co-culture Wnt3A assay, effector cells with 293.TCF reporter cells", "type": "cell-based", "details": "antibody 10 μg/mL", "method": "In order to more closely model the behavior of Notum producing cells in vivo, co-culture experiments were performed in which effector cells, either parental 293T cells (293.null) or 293T cells expressing soluble Notum (i.e., 293.Notum cells), were mixed in varying ratios with reporter 293.TCF cells. Notum activity or inhibition in the presence of antibodies was then determined from these cell mixtures after treatment with Wnt3A CM. Briefly, three different ratios of effector to reporter cells were tested: 2:1, 1:[…], corresponding to 5×10^4: 2.5×10^4, 2.5×10^4: 2.5×10^4 cells, or 2.5×10^41.0×10^4 cells per well of a 96-well plate by mixing the cells in 50 μL serum free medium per well prior to plating.\nFor the antibody antagonism experiments, the mixture of cells was plated into wells containing 25 μL of DMEM+0.2% FBS and antibody at a final concentration of 10 μg/mL. Twenty-three hours after plating, 25 μL of Wnt3A or control L-cell CM were added to each well. Eighteen hours after addition of CM, 100 μL of One-Glo solution (ProMega Corp.) was added to each well. The contents of each well were then mixed thoroughly to lyse the cells, 100 μL of lysate transferred to black 96-well plates, and the luminescence read after 5 minutes."}, "hNotum-Fc": {"biological_target": "T2, hNotum-Fc (Homo sapiens, UniProt Q6P988)", "T2 construct": "IL-2 signal peptide (N); made in house; host or cells: CHO-S", "T2 sequence (Q6P988 with tags, fused parts or gaps)": "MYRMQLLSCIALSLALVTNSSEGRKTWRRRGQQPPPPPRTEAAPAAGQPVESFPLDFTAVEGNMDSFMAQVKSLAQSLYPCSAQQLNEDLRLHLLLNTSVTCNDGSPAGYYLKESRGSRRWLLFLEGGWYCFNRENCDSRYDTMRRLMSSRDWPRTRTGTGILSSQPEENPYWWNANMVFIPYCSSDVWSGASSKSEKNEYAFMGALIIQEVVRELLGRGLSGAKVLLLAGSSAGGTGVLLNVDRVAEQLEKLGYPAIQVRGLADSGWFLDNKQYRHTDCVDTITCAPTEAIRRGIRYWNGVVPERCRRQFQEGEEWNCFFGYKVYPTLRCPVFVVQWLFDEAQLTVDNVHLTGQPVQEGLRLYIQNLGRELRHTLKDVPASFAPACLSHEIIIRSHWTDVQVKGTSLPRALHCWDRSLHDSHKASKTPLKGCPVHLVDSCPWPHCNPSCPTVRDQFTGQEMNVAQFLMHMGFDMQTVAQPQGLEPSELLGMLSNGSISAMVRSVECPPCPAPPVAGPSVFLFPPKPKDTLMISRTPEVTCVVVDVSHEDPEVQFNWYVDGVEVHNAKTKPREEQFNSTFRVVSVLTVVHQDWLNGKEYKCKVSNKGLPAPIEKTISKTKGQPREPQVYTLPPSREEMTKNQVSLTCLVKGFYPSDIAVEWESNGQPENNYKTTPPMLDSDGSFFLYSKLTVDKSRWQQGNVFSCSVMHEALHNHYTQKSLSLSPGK", "assay": "Triton X114 partition assay, blocking of hNotum-Fc", "type": "biochemical", "details": "hNotum-Fc preincubated with antibody", "description": "If Notum directly acts upon Wnt3A to delipidate the protein, this cleavage should result in a change in the hydrophobicity of the protein, which can be measured by a change in its partitioning behavior between aqueous and detergent phases in a Triton X114 partition assay (Bordier, 1981, PMID: 6257680): lipidated Wnt3A will be found in the […], whereas delipidated Wnt3A should show up in the […] (Willert et al., 2003, PMID: 12717451). […] An equal volume of 4.5% Triton X114 was added to the mixture, the mixture incubated on ice for 5 minutes, then at 37° C. for five minutes, before separating the phases using centrifugation at 2000×g for five minutes at room temperature. Following separation each sample was adjusted to normalize the ionic strength and Triton X114 content before analyzing the aliquots by PAGE electrophoresis. After running the gel the protein bands were transferred to a membrane for immunoblotting using an anti-rhWnt3A antibody (Cell Signaling Technology). Bands were visualized using SuperSignal West Pico Chemiluminescent substrate (Thermo Fisher Scientific).\nLane 1 is a positive molecular weight marker for rhWnt3A while the presence or absence of reagents in each aliquot is noted above the respective lane (where a is the aqueous fraction and t is Triton X-114 fraction, and the sliding bar indicates the concentration of Notum modulator). […]"}, "[2]": {"system": "mouse lineage-depleted NTX tumor cells from SCRx-CR4", "assay": "Cell survival/proliferation, CellTiterGlo, SCRx-CR4", "type": "cell-based, human", "details": "antibody 10 μg/mL, versus MOPC isotype control", "method": "To determine whether Notum protein impacts cell proliferation and/or apoptosis of human colorectal cancer cells, HCT-116 cells or mouse lineage-depleted NTX tumor cells (i.e. human tumor cells) were plated as described below and exposed to recombinant hNotum (e.g. hNotum-His or hNotum-hFc) and anti-Notum antibodies. Cell numbers were then assessed 12-14 days later.\nCells were then incubated for 14 days at 37° C., 5% CO2 and 5% O2 and the number of viable cells was assessed using Promega's CellTiterGlo assay kit per the manufacturer's instructions. For the HCT-116 cell line (a commercially available colorectal tumor cell line), cells were plated at 2,000 cells per well in DMEM+1% FBS, followed 24-hours later by the addition of serum free DMEM containing recombinant human Notum in the presence or absence of monoclonal antibodies SC2.D2.2 or SC2.10B3. HCT-116 cells were then incubated for 12 days at 37° C., 5% CO2 and cell viability was assessed with Promega's CellTiterGlo assay kit. Higher readings are indicative of higher viable cell counts."}}}
{"molecule": "B1", "values": [{"measurement": "Wnt3A-induced luciferase", "setting": "[1]; co-cultures of 293.Notum and 293.TCF cells", "value": "increases the amount of Wnt3A-induced luciferase"}, {"measurement": "induction of luciferase activity by Wnt3A CM", "setting": "[1]; co-cultures of 293.null and 293.TCF cells", "value": "little effect"}, {"measurement": "blocking of Notum induced redistribution of rhWnt3A", "setting": "hNotum-Fc", "value": "can be blocked"}, {"measurement": "effect on proliferation / cell numbers", "setting": "[2]", "value": "significantly less proliferation"}]}
